Experimental data as given in the DeepSol protein solubility set.

Assay: soluble on expression in E. coli; label from the status in PepcDB or PDB records

Sequence	soluble on expression in E. coli
MSLSYVHTEIQNDALYITLDYPEKKNGLDAELGTSLLEAIRAGNNETSIHSIILQSKHRAYFSSGPRLEDLLICASDQSDVRLREVLHVLNHCVLEIFTSPKVTVALINGYAYGGGFNMMLACDRRIALRRAKFLENFHKMGISPDLGASYFLPRIIGYEQTMNLLLEGKLFTSEEALRLGLIQEICENKQELQERVKNYLKAVSEGYVPAIAATKKLLKGKAAEELKQQLEQETEELVALFKQTEIKKRLEALVEGHHHHHH	soluble
MSLTALYVQNKINGKIILPFSHSMTNVLRLNRSYGRTMLISNTYNQHFPQLTQEQLARNATKKVICGMSGGVDSSVSAFILQQQGYQVEGLFMKNWEEDDDTDYCTAAADLADAQAVCDKLGIKLHKINFAAEYWDNVFEHFLTEYKAGRTPNPDILCNKEIKFKAFLEYAAEDLGADYIATGHYVRRAGDNENAKLLRGLDPNKDQSYFLYTLSHKQVGQSLFPVGEIEKPIVRAIAEDLGLITAKKKDSTGICFIGERKFKDFLARYLPAQPGNIRTVDDEIIGRHDGLMYHTLGQRKGLGIGGLKNAGDEAWYVVDKDVENNELIVAQGHDHPRLFSKGLIASQLHWVDREPIRESLRCTVKTRYRQQDIPCVIEPIDDETIRVIFDEPQSAVTPGQSAVFYLGEVCLGGGIIAERIEGHHHHHH	soluble
MSLTASAPRRPAAFLDRDGVINYNDHYVGTRERLRWMPGIAAAIRQLNAAGYYVFIITNQSGVARGMFSEDDVRALHRWMLDELNTQGARIDDVRFCPHHVEGTLDAYRVACEHRKPGPGMILDLAKTWPVDMTRSFVIGDSASDVEAAKAAGIPGFRFEGEDIDVFVKQVLIEMQRAAVSNEGHHHHHH	soluble
MSLTASIPINSNLIVHVGNNVRIDAFGLKARLTGDLNVVQDKQGLGLNGQINIPEGRFHAYGQDLIVRKGELLFSGPPDQPYLNIEAIRNPDATEDDVIAGVRVTGLADEPKAEIFSDPAMSQQAALSYLLRGQGLESDQSDSAAMTSMLIGLGVAQSGQIVGKIGETFGVSNLALDTQGVGDSSQVVVSGYVLPGLQVKYGVGIFDSIATLTLRYRLMPKLYLEAVSGVDQALDLLYQFEFEGHHHHHH	not soluble
MSLTDIRDHRDMLTVHHLNNSRSQRVLWLLEELDTPYEIKRYQRQPDMMAPKELRAVHPLGKSPVITDNGNTIAESGAIIEYIVGTYGNGRLIPPPNTPERLRYTYWLHYAEGSAMPPLLLKLLFSMMPQRAPALVRPLVKMVASGALTGFVDPQLKLHMDYWESELGKAAYFAGDEFTAADIQMSFPLEAAAARGGLDQRYPKAQAWLERIHARPAYNRALEKGGPYEIGKAEGHHHHHH	soluble
MSLTEAAKLTFKVTNPNEKVKVRLTFSQSGEQKEVAIDAAGNGNIEITGFTPQYVTMQYTRGRRTLYLDPNQDLTLSFDSDNMWRNTTFEGAGAAINTYLGSKELQSLGMPDMKMQEAALIHKGDSLYAANCQVLEAAKLPADFTAQEKIRLQFYTYYYFSKYALYHPHFGKDDNYIPSKAYYEKLEAITPINAGLLALKEYKAFLPDAISAFSNKGKTVASNSTEQSVNYVDATIQDEKVAEFLIDQFVYNFVDNNGLDEADGLIVLFRKHVKDAKSIEKFNALCTKWEKLRSGNPSAASFSYPDINGKTVSLADLKGKYIYIDVWATWCGPCRGELPALKELEEKYAGKDIHFVSLSCDKNKKAWENMVTKDQLKGIQLHMGTDRTFMDAYLINGIPRFILLDRDGKIISANMTRPSDPKTAEKFNELLGLEGHHHHHH	soluble
MSLTELEFVTEHRRYLHKHPELSLHEYETTKYIAHFLDDLGVPYERPLDTGVIAYLSGNSTHTIAYRADIDALPIYEENNVSYRSEVDHVMHACGHDGHTTALMLFVKRCKNLADKGELPQNIVFIFQPAEETGGGANRLIRAGAFEKYPIEAVFGIHVMPFENEGRVVIRDEEITASATEYRFYLHGLSSHVADKEQGHSCGEALQHVLTQVGQIQQYHLNGLKRNIVHMGHFEAGEAINTVPSNGYLEGTIRTYDVKDLEIVKQQMTKISESVKLLFNVECEVKFEEGYPPTFNDPQLRKHVENGLVNAEFEVIDKPTPYLFGEDFSFYSQIAPSYFVFVGVRDEAKGYVTGLHTSHLNFNESILIRIADYYEQILKSYSEVQSEGHHHHHH	soluble
MSLTETILSVGIDLGTSTTQLILSELEIQNMASSFTVPRIVISDKRIIFRSEILFTPILADNLIDVEAIRDFVTKEYANAGIKKEEIGMGAVIITGETARKDNASNVLDAMSGFAGDFVVATAGPDLESIIAGKGAGAHTYAKENNTSVVNLDIGGGTTNLSLFDRGELIDTACLDIGGRLIKVDRETRKITYIAPKIQALIEKRGYPVKLGETTSPENLQPVLGEMVELLKNSVGLGAPNDFYKTIITNKGLKFLTEIECISFSGGVADCISTGALSDPFRYGDIGLLLGKAIAESSLMTEKKYIESVETIRATVVGAGSHTAEISGSTITYTEKIFPVKNIPILKLAKQEEDENMAEVIKEKLSWFKIENEMEHIALAIEGENSPSFQQVTEYAKAICEGMKEPIALGHPLIIITWHDMAKALGQSIFGHLPAGHPLICLDSVKVDNGDYIDIGKPVADGKVLPVVVKTLVFNEGHHHHHH	soluble
MSLTGVLGFYTLEEGPTLPSSFTSFANNTGQLSSTALFMFRISAANPTTIEKFGEFTDQDVRNLVAIAHRNNVKIMPVVHNLLYRPGGTTLAKNVVKTLVSDPRNRNAFALNLVNLIERYGFDGVNIDIEDVFIEDSDNLSLLYTEISEVLRPRGYFFSASVPSRVSDEPFNPFSDPFNYSVIGRAVDEFVVMLYNEFGWPGSPPGPAVTIGWMERVLRYTMSKMPRDKIMAAVSVFGFDFNLTTGRNTYVTYQSAINLARRYNSEIIFNEERQTPMFTYRDAQGNQHEVWFEDARSLRSKIQLAWELGIKGVALWRLGMEDPNIWPMLRNEVVVRKFEGHHHHHH	soluble
MSLTILNHTLGFPRVGLRRELKKAQESYWAGNSTREELLAVGRELRARHWDQQKQAGIDLLPVGDFAWYDHVLTTSLLLGNVPARHQNKDGSVDIDTLFRIGRGRAPTGEPAAAAEMTKWFNTNYHYMVPEFVKGQQFKLTWTQLLDEVDEALALGHKVKPVLLGPVTWLWLGKVKGEQFDRLSLLNDILPVYQQVLAELAKRGIEWVQIDEPALVLELPQAWLDAYKPAYDALQGQVKLLLTTYFEGVTPNLDTITALPVQGLHVDLVHGKDDVAELHKRLPSDWLLSAGLINGRNVWRADLTEKYAQIKDIVGKRDLWVASSCSLLHSPIDLSVETRLDAEVKSWFAFALQKCHELALLRDAVNSGDTAALAEWSAPIQARRHSTRVHNPAVEKRLAAITAQDSQRANVYEVRAEAQRARFKLPAWPTTTIGSFPQTTEIRTLRLDFKKGNLDANNYRTGIAEHIKQAIVEQERLGLDVLVHGEAERNDMVEYFGEHLDGFVFTQNGWVQSYGSRCVKPPIVIGDISRPAPITVEWAKYAQSLTDKPVKGMLTGPVTILCWSFPREDVSRETIAKQIALALRDEVADLEAAGIGIIQIDEPALREGLPLRRSDWDAYLQWGVEAFRINAAVAKDDTQIHTHMCYCEFNDIMDSIAALDADVITIETSRSDMELLESFEEFDYPNEIGPGVYDIHSPNVPSVEWIEALLKKAAKRIPAERLWVNPDCGLKTRGWPETRAALANMVQAAQNLRRGEGHHHHHH	soluble
MSLTILQELPKLSPLPARKLGSYTCKTVHMTTTELLPFHAVGTSPDAAAQADSNIETQFANVLHSLQVNKQRDPFDIIQDFKQICADRALSTRDKLSLDESNTALAEEFDNWDLEFKLWELVDRLFRFRALFSNKAKTELLREYDFSSMGIKQENFLRKNPAIRELSIIILWLQSHTPSLVGDETESYQTKWKNTAMAVANSDFDVLASRATDADLIDKLDIDAPLRSNRSIHPADESNDSKVFAQIYKLLLQDRVQDAIDIANNTGNYALALILVGATQEYFDPVLDKQDLDFDSIVAEQTKPSGIKHKLLWKKTVYKLSQQANLNKYEKLIYNYLCGGDISGNLLVASDDWEQTLLLYLSQLYSYNIDNFIVSQLSSEQEILPVNIPKPQLNTIAEILNTILHSGNLLTQQSENPLRVIMGSVMLDNVPSLLHNLTSSLTGEPEALKKPYISRVLTHLAIFQLLVVGTDNINNEDITTIITSYTSKLAEYKLPELIPIYLSFVPNEKDSREAYALFLSSLTDSSDRSKQIEISRRIANSISEVDEAMELAANTQEDKMMNVLRRTVERVMKDTESHYKPQAVIEVQDDINSVDDIDSKLYHSVEWFYENKMYEDAIVATIAIIRRFLLCGKLAPLKAFSKGKNFKLLLVEYDTQLQTKSLIFQNEPEIVTEEDKEELLAYASLIEGLILIDEWKKFVSTQINSEGHHHHHH	not soluble
MSLTIRDIAAKAGVSVSTASRALNNNPRISQATRERIQALAEAEGYLPNYNAKNLTAGESNAVGVVFATADRSQPENPFFIDILRGINAQLVQRDYVLSVAISKTADELLKNVKAMVAQGKIKRFVLLYAHQDDPIAAFLRQHHLRFVTIGQPDDNANDYFVDNDNLEAGIGGATFLLNQLQVKHPVFVESTHDWAYEQQRRQGYERVAATFNVEPLTCRLGELNRVRAFIKRHPEIDGIMATDDFNGIEFYRLMREQYGINHFPMVSFNQSLPNGLTDADLHSVNLFPEKMGSATVALLFSDKEPLETPTPGQIKIPFEIKEGHHHHHH	soluble
MSLTKEAIISYLSSDLFKGVGKKTAQNIVNTLGDNAINDILDDHSVLEKVSGLSKKKQKQIAEQISANQESEKIMIRLHDLGFGPKLSMAIYQFYLGDTLTILDRNPYQLIYDIKGIGFNKADQLARNIGIAYNDNERLKAALLYTLEEECIKQGHTYLPINVVIDLTVDVLNYQDEEVIEPEKLDEMLQYLNEEKRLIIDNEQVAIPSLYYSEIKSVQNLFRIKTHTNKLTEIEQSDLQMHIGEIEDANQVNYAASQKEALQTAINSKVMLLTGGPGTGKTTVIKGIVELYAEIHGLSLDYDDYVNDDYPVVLAAPTGRASKRLQESTGLEAMTIHRLIGWNQDTKPEDILENEINARLIIIDEMSMVDTWLFHQFLSAVPLDAQLIFVGDEDQLPSVGPGQVFKDLIESKAIPRVNLTEVYRQQDGSSIIELAHRMKLGQKIDITQRFHDRSFINCQANQIPTVVEKVVTSAVNKGYTMADIQVLAPMYKGNAGIKRLNQVLQDILNPKKKDTREIEFGDVVFRKGDKVLQLVNRPNDNIFNGDIGVIVGIFWAKENALNKDVLVVDFEGNEITFTKQDMMELTHAYCTSIHKSQGSEFPIVIMPIVKQYFRMLQRPILYTGLTRAKTSLVLLGDPEAFDIGLKTNGQARLTQLCTLLKNYFNSEGHHHHHH	soluble
MSLTKRWFNVGKIVNTHGIKGEVRVISKTDFAEERYKPGNTLYLFMDGRNEPVEVTVNTHRLHKQFHLLQFKEGQNLNEVEELKNAIIKVPEEELGELNEGEFYFHEIIGCEVFTEEGELIGKVKEILTPGANDVWVIGRKGKKDALIPYIESVVKHIDVREKKIEIELMEGLIDEEGGSHHHHHH	soluble
MSLTKVLVIDPKIAGMSGDMFVSSLLALTNSYDLMDELILELEKLNNCNSFKVSVMDEKVNGISAKQLKIEIDEERIKNPDELKEIIINTSKNLMSEKGVKICENIINDLIEAEKKLHGDHFHLHEISSLDTVFDIVLPVLILEKNGFLDGKIYSTPPSLGNGRISMDHGIIPSPAPSTLEILCKHEIKCSKVDSEFELLTPTGAAILSNVTDEFTDSYPEIVLLKTAYGAGTKRMEHVPNVLRLVEGKTDEKIIEKTVILETNIDDISSEILAYAVERLLNEGAPDVFITPVFGKKNRPSSMISVICPYHVHEKFAKILIEETGTLGVRINHYDKIRAKRRMEKLTLDINGVNFGFDVKISDLNGEIVNIKPEFEDLKKIAKNLNIPLRDVLRHANNKIKEIYGFEGHHHHHH	soluble
